Experiments:
[1] = target: His6-tagged 14-3-3ε (human) (UniProt P62258); test: SPR
[2] = target: 14-3-3ε/γ heterodimer (His6-tagged 14-3-3ε with untagged 14-3-3γ) (human) (UniProt P62258); test: SPR
[3] = target: human 14-3-3ε devoid of the C-terminal flexible tail (14-3-3εΔC) (human); test: SEC
human 14-3-3ε devoid of the C-terminal flexible tail (14-3-3εΔC) (human), sequence (B3KY71 whole entry, stated change not applied): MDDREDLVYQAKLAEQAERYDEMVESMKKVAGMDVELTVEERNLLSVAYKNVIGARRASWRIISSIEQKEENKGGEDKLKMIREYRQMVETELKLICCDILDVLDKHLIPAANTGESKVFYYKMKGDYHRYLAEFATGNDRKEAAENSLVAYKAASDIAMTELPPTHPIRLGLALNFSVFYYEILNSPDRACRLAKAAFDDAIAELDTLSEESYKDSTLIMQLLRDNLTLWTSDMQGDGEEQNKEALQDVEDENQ

- Kd [1]: 13 µM
- Kd [2]: 15 µM
- stoichiometry N (STARD1 per 14-3-3 subunit (2:2)) [3]: 1
- stoichiometry N ([3]; scale: STARD1 per 14-3-3 subunit): 0.5
B1: STARD1_(46-285)-S56A/L59P phosphorylated at Ser57 and Ser195 (domain or fragment)
chain: STWINQVRRRASLPGSRLEETLYSDQELAYLQQGEEAMQKALGILSNQEGWKKESQQDNGDKVMSKVVPDVGKVFRLEVVVDQPMERLYEELVERMEAMGEWNPNVKEIKVLQKIGKDTFITHELAAEAAGNLVGPRDFVSVRCAKRRGSTCVLAGMATDFGNMPEQKGVIRAEHGPTCMVLHPLAGSPSKTKLTWLLSIDLKGWLPKSIINQVLSQTQVDFANHLRKRLESHPASEARC
modifications: phosphoserine at 57; phosphoserine at 195

From doi:10.1101/2020.04.14.040436
